Experimental data taken from the supplement of paper PMC9876800.

System: peptide library, one residue held at a place counted from the S/T acceptor
Assay: relative phosphorylation of the sub-library (ratio to the mean residue at this position); higher = residue favoured
Settings: human
Method in brief: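 Purified recombinant kinases were reacted in 384-well plates with biotinylated degenerate peptide sub-libraries, each having one residue fixed at one position around a central Ser/Thr. The reaction mix contained 50 μM peptide plus 50 μM ATP spiked with γ-32P-ATP and ran for 90 min under kinase-specific conditions. Relative sub-library phosphorylation, taken from densitometry of phosphorimaged streptavidin membrane spots, is a ratio to the mean residue at that position.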

Chain of ROCK2, construct: aa5-554 (O75116 5-554, looked up): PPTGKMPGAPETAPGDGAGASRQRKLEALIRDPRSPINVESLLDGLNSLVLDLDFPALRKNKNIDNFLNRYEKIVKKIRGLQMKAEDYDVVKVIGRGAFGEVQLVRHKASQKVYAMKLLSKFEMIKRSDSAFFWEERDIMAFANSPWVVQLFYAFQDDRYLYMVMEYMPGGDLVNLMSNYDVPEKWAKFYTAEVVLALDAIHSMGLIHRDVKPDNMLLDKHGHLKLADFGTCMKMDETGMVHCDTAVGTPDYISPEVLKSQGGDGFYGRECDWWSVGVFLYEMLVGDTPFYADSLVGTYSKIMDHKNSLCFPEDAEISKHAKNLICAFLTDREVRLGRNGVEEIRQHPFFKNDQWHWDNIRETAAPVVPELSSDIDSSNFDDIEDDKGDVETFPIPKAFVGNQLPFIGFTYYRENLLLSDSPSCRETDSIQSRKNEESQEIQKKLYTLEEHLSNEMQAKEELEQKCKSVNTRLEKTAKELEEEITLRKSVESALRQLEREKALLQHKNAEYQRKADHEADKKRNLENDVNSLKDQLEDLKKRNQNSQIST
Chain of PHKG1, construct: Full length (Q16816 whole entry, looked up): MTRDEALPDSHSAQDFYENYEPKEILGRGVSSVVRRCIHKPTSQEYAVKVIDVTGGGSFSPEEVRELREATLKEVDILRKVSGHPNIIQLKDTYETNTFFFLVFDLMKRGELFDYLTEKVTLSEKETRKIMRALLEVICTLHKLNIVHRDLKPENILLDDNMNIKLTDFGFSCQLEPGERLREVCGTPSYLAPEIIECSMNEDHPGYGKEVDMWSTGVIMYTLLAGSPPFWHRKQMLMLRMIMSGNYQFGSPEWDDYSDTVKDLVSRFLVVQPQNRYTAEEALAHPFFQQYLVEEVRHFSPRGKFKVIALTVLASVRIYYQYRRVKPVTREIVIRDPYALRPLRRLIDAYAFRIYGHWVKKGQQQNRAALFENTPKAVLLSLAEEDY

MAP3K9, construct: aa132-413 (from UniProt P80192)
relative phosphorylation
Settings	at +1	at +2	at +3	at +4	at -1	at -2	at -3	at -4	at -5
A fixed	0.832	0.66	0.89	0.949	0.791	0.914	1.07	1.13	1.12
D fixed	0.308	0.362	0.612	0.652	1.02	1.23	1.16	1.57	1.45
E fixed	0.492	0.46	0.619	0.719	0.854	1.03	1.38	1.45	1.3
F fixed	1.61	0.594	1.44	0.823	1.19	1.33	1.14	0.824	0.978
G fixed	0.686	0.727	0.991	1.02	0.525	0.932	1.21	1.18	1.13
H fixed	1.23	1.66	1.28	0.995	1.3	1.13	1.1	0.955	0.984
I fixed	1.3	0.627	0.865	0.842	0.899	0.715	0.785	0.734	0.887
K fixed	1.19	2.81	1.59	1.94	1.07	0.523	0.688	0.998	0.882
L fixed	0.969	0.598	1.11	0.841	1.08	0.824	0.792	0.759	0.737
M fixed	1.28	0.522	0.995	0.952	1.25	0.931	0.863	0.929	0.827
N fixed	0.689	0.836	0.797	0.946	1.1	1.07	1.04	0.951	1.08
P fixed	0.208	0.36	0.501	1.04	0.775	1.57	1.15	0.99	0.9
Q fixed	1.2	0.907	0.741	0.943	0.924	1.08	0.925	0.934	0.901
R fixed	1.55	3.45	1.47	1.8	1.26	0.817	0.946	1.14	1.05
V fixed	1.49	0.602	0.796	0.767	0.873	0.701	0.798	0.83	0.908
W fixed	1.19	0.687	1.19	1.05	0.969	1.13	0.881	0.892	0.907
Y fixed	0.772	1.13	1.12	0.72	1.13	1.07	1.08	0.745	0.958
pThr fixed	0.825	0.703	0.677	1.01	0.976	1.23	1.83	1.55	1.57
pTyr fixed	0.628	0.376	0.709	0.622	1.29	1.19	1.54	1.02	1.54

PHKG1, construct: Full length (from UniProt Q16816)
relative phosphorylation
Settings	at +1	at +2	at +3	at +4	at -1	at -2	at -3	at -4	at -5
A fixed	0.524	0.708	0.898	0.937	0.837	1.11	0.736	0.926	1
D fixed	0.175	0.2	0.276	0.343	0.512	0.624	0.356	0.439	0.436
E fixed	0.197	0.139	0.272	0.238	0.411	1.49	0.376	0.573	0.367
F fixed	3.7	1.16	1.29	1.13	1.06	0.838	0.53	0.865	1.18
G fixed	0.491	0.721	1.06	1.02	0.741	1.13	0.824	1.15	0.937
H fixed	0.712	1.35	1.3	1.18	1.24	0.984	1.12	1.11	1.1
I fixed	1.5	0.516	0.891	0.75	0.611	0.363	0.278	0.728	0.791
K fixed	0.777	2.04	1.37	2.01	1.44	1.12	2.55	1.56	1.46
L fixed	1.17	0.544	1.06	0.956	0.927	0.576	0.376	0.823	1.34
M fixed	1.65	0.694	0.957	0.886	1.18	0.969	0.458	0.957	0.824
N fixed	0.513	0.739	0.786	0.866	1.32	1.28	0.721	0.764	0.664
P fixed	0.292	0.721	1.09	1.29	0.999	0.702	0.926	1.17	1.01
Q fixed	0.779	0.703	0.782	1.01	1.14	2.05	0.936	0.927	0.779
R fixed	0.876	3.73	1.46	1.67	1.57	1.55	4.81	1.63	1.58
V fixed	1.22	0.501	0.721	0.752	0.711	0.508	0.311	0.721	0.832
W fixed	1.21	1.48	1.56	1.1	0.931	0.813	0.98	1.58	1.71
Y fixed	1.22	1.06	1.24	0.862	1.38	0.875	0.71	1.08	0.99
pThr fixed	0.419	0.25	0.393	0.356	0.535	0.529	0.621	0.846	0.68
pTyr fixed	0.329	0.171	0.348	0.254	0.675	0.4	0.469	0.721	0.599

ROCK2, construct: aa5-554 (from UniProt O75116)
relative phosphorylation
Settings	at +1	at +2	at +3	at +4	at -1	at -2	at -3	at -4	at -5
A fixed	0.695	1.01	0.926	0.921	0.75	0.607	0.647	0.938	1
D fixed	0.471	0.48	0.757	0.745	0.406	0.263	0.297	0.58	0.562
E fixed	0.455	0.51	0.614	0.751	0.301	0.251	0.28	0.613	0.471
F fixed	0.69	0.707	0.962	1.1	0.559	0.474	0.341	0.622	0.679
G fixed	0.957	0.876	1.73	1.31	1.08	0.706	0.724	1.22	1.19
H fixed	0.984	1.16	1.25	1.1	1.16	1.42	1.59	1.13	1.25
I fixed	1.49	1.29	0.948	0.984	0.482	0.3	0.281	0.516	0.692
K fixed	1.19	1.44	0.998	1.2	2.77	2.71	2.57	2.3	2.45
L fixed	1.48	1.08	0.952	0.886	0.912	0.391	0.304	0.504	0.494
M fixed	1.52	0.743	0.876	0.929	0.792	0.446	0.361	0.707	0.571
N fixed	1.43	0.734	0.931	1.04	1.15	0.937	0.637	0.836	0.779
P fixed	0.266	0.935	1.28	1.29	1.28	0.665	0.785	1.19	1.04
Q fixed	1.51	0.75	0.835	0.946	1.09	0.801	0.651	0.904	0.865
R fixed	1.77	1.81	0.97	1.07	2.2	5.27	6.24	2.89	2.83
V fixed	0.908	1.48	0.835	0.727	0.619	0.321	0.297	0.555	0.641
W fixed	0.616	0.922	1.08	1.09	0.528	0.762	0.53	0.822	0.736
Y fixed	0.564	1.07	1.06	0.914	0.929	0.681	0.461	0.673	0.758
pThr fixed	0.595	0.566	0.556	0.763	0.336	0.465	0.494	0.755	0.805
pTyr fixed	0.409	0.592	0.736	0.663	0.386	0.338	0.435	0.489	0.705

PRKCB, construct: Full length (from UniProt P05771)
relative phosphorylation
Settings	at +1	at +2	at +3	at +4	at -1	at -2	at -3	at -4	at -5
A fixed	0.614	0.584	0.815	1.08	1.16	1.17	0.836	1.3	1.35
D fixed	0.203	0.219	0.509	0.604	0.516	0.531	0.379	0.694	0.677
E fixed	0.288	0.177	0.503	0.546	0.489	0.468	0.438	0.654	0.676
F fixed	0.881	0.35	0.602	0.636	0.435	0.597	0.639	0.72	0.947
G fixed	0.585	0.365	1.09	1.22	1.65	1.37	0.95	1.57	1.45
H fixed	0.861	1.39	1.36	1.37	1.24	1.23	1.47	1.17	1.26
I fixed	1.05	0.413	0.529	0.559	0.214	0.323	0.214	0.393	0.452
K fixed	2.49	3.97	2.36	2.46	2.15	1.93	1.91	1.64	1.67
L fixed	0.864	0.469	0.796	0.644	0.563	0.448	0.371	0.517	0.71
M fixed	1.61	0.604	0.68	0.705	0.779	0.662	0.606	0.898	0.684
N fixed	0.691	0.909	1.09	1.13	1.34	1.52	1.07	1.11	1.04
P fixed	0.289	0.305	0.606	1.27	1.09	0.87	0.983	1.2	1.22
Q fixed	1.45	0.727	1.1	1.2	1.04	1.47	1.08	1.24	1
R fixed	2.18	4.58	2.22	1.46	2.25	2.3	4.21	1.78	1.44
V fixed	1.11	0.443	0.627	0.683	0.496	0.462	0.354	0.504	0.695
W fixed	0.813	0.627	1.03	0.83	0.556	0.933	0.68	0.933	1.19
Y fixed	1.03	0.86	1.07	0.618	1.04	0.717	0.805	0.679	0.531
pThr fixed	0.842	0.433	0.621	0.672	0.372	0.756	0.666	0.932	0.844
pTyr fixed	0.519	0.272	0.651	0.434	0.732	0.712	0.693	0.806	0.983
